{"source": "paper doi:10.1101/854497", "about": "(bioRxiv, 2020)", "binders": {"B1": {"name": "His6-Pex17p (natural protein, yeast, UniProt P40155 1-199, looked up)", "chain": "MTSINSFPRNIDWPSNIGIKKIEGTNPTVNAIKGLLYNGGSIYAFLYFVIAMFVEPTLQKQYQQRNDFSLFVLLRLRRIIAQLQKRLVMTPVSSLGFNEQNNFVERSTQTSDDNIIREDNSHWAEMIYQLQNMKQELQYFNRSSGQPSESIDDFVFQIKMVTDQVELTDRSRAFSNKSRNIIQGIREIKGWFVNGQVPR"}, "B2": {"name": "StrepII-Pex14p(M51L) (natural protein, yeast, UniProt P53112 1-341, looked up)", "chain": "MSDVVSKDRKALFDSAVSFLKDESIKDAPLLKKIEFLKSKGLTEKEIEIALKEPKKDGIVGDEVSKKIGSTENRASQDMYLYEAMPPTLPHRDWKDYFVMATATAGLLYGAYEVTRRYVIPNILPEAKSKLEGDKKEIDDQFSKIDTVLNAIEAEQAEFRKKESETLKELSDTIAELKQALVQTTRSREKIEDEFRIVKLEVVNMQNTIDKFVSDNDGMQELNNIQKEMESLKSLMNNRMESGNAQDNRLFSISPNGIPGIDTIPSASEILAKMGMQEESDKEKENGSDANKDDNAVPAWKKAREQTIDSNASIPEWQKNTAANEISVPDWQNGQVEDSIP"}}, "key": {"cross-linking": {"target": "the molecule itself", "experiment": "cross-linking"}, "StrepII-Pex14p(M51L)": {"target": "B2", "experiment": "cryo-EM structure"}, "native MS + SEC-MALS": {"target": "the molecule itself", "experiment": "native MS + SEC-MALS"}, "His6-Pex17p": {"target": "B1", "experiment": "native MS"}}, "note": "“And” between values parts separate entries of the source, which are not always exact repeats. Equal entries are not always repeated."}
{"binder": "Pex14p_(119-341) (domain or fragment, yeast, UniProt P53112 119-341, looked up) VIPNILPEAKSKLEGDKKEIDDQFSKIDTVLNAIEAEQAEFRKKESETLKELSDTIAELKQALVQTTRSREKIEDEFRIVKLEVVNMQNTIDKFVSDNDGMQELNNIQKEMESLKSLMNNRMESGNAQDNRLFSISPNGIPGIDTIPSASEILAKMGMQEESDKEKENGSDANKDDNAVPAWKKAREQTIDSNASIPEWQKNTAANEISVPDWQNGQVEDSIP", "values": [{"measurement": "stoichiometry N", "setting": "cross-linking", "result": 3}]}
{"binder": "B1", "values": [{"measurement": "binding result", "setting": "StrepII-Pex14p(M51L)", "result": "binds"}]}
{"binder": "B2", "values": [{"measurement": "stoichiometry N", "setting": "native MS + SEC-MALS", "result": 3, "unit": "copies"}, {"measurement": "stoichiometry N", "setting": "His6-Pex17p", "result": "3 Pex14p:Pex17p and 6 Pex14p:Pex17p and 4.5 Pex14p:Pex17p"}]}
